Measurements: patent US20240366624A1 (WASHINGTON UNIVERSITY, published 2024)

T1: recombinant human ERO1α (endoplasmic reticulum oxidoreductase 1α), wild type (human, UniProt Q96HE7 24-468, biotinylated when coupled to the bio-layer interferometry biosensor (site not stated))
T1 construct: also called wtERO1α; biotinylated ERO1α
T1 sequence (looked up): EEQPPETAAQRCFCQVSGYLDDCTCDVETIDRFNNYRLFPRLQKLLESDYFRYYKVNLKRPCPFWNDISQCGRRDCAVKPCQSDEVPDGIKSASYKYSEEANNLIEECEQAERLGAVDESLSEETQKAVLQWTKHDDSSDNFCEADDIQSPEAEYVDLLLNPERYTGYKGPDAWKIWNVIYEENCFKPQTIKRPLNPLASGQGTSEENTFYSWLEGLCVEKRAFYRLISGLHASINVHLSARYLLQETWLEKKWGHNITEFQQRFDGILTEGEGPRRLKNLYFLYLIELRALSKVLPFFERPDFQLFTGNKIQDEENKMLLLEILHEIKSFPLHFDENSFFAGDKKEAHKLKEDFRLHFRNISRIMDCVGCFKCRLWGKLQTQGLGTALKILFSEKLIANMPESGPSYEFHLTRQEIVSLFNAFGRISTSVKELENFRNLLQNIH


Legend:
[1] = molecular target: T1, recombinant human ERO1α (endoplasmic …); assay: bio-layer interferometry, biotinylated ERO1α on the biosensor, STIM1 in solution
Description: PDI is reported to localize in the DTS of platelets. […] It is reported that deletion of platelet STIM1 reduces Ca²⁺ store content in the DTS and SOCE. Thus, ERO1α regulation of STIM1 function was investigated. Bio-layer interferometry was first performed using a biosensor coupled with biotinylated ERO1α and a different concentration of WT or mutant STIM1 in which Cys49 and Cys56 residues were mutated to Ser49 and Ser56 (mutant STIM1 [mSTIM1]-Cys49/56Ser).

[2] = molecular target: T2, human platelet STIM1 (stromal interaction molecule 1) (human, UniProt Q13586 23-685); assay: co-immunoprecipitation of ERO1α from lysates of resting and thrombin-activated human platelets, mass spectrometry; volcano plot thrombin versus no thrombin
T2 construct: Co-immunoprecipitated with ERO1α

[3] = molecular target: T3, human platelet SERCA2 (sarco/endoplasmic reticulum Ca2+ ATPase 2) (human, UniProt P16615 1-1042, limits assumed); assay: as above
T3 construct: Co-immunoprecipitated with ERO1α

[4] = molecular target: T4, human platelet PDI (protein disulfide isomerase) (human, UniProt P07237 18-508); assay: immunoprecipitation of PDI from lysates of resting and thrombin-treated human platelets, immunoblot with anti-ERO1α, densitometry
T4 construct: Immunoprecipitated with biotinylated polyclonal anti-PDI antibodies
Method: FIG. 1(A-D) is an exemplary embodiment of PDI interacting with ERO1α in platelets in accordance with the present disclosure. Human platelets were treated with or without thrombin for 5 minutes and immunoprecipitated with biotinylated polyclonal anti-PDI antibodies or control IgG. After trypsin digestion, mass spectrometric analysis was conducted. […] FIG. 1B: Examples of the identification of the tryptic peptides […] (SEQ ID NO: 1) and […] (SEQ ID NO: 2) from ERO1α in which the parent ion is observed at 521.77 and 753.37 m/z, respectively, and the parent ion mass error is 4.3 and 3.5 ppm, respectively. FIG. 1C: The peptide sequences of ERO1α that were detected after trypsin digestion. FIG. 1D: After immunoprecipitation with antibodies, the bound fraction was immunoblotted with the indicated antibodies, followed by densitometry (the band density of ERO1a/that of PDI). The data represent the mean±SD (n=3). P value determined by unpaired Student's t-test.

T4 sequence (P07237 18-508 limits assumed): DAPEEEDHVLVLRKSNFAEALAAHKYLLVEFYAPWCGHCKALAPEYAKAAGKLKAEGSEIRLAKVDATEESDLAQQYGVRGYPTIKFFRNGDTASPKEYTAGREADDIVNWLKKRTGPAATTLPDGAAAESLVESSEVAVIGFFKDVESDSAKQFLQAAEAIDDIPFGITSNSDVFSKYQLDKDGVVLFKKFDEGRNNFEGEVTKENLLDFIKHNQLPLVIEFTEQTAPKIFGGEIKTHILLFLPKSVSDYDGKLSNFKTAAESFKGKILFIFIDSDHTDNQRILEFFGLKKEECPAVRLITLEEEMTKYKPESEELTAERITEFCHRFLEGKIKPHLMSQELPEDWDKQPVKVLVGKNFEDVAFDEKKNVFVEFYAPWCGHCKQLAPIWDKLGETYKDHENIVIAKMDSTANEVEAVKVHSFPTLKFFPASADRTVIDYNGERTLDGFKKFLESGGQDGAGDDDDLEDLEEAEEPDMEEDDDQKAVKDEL
T3 sequence (P16615 whole entry): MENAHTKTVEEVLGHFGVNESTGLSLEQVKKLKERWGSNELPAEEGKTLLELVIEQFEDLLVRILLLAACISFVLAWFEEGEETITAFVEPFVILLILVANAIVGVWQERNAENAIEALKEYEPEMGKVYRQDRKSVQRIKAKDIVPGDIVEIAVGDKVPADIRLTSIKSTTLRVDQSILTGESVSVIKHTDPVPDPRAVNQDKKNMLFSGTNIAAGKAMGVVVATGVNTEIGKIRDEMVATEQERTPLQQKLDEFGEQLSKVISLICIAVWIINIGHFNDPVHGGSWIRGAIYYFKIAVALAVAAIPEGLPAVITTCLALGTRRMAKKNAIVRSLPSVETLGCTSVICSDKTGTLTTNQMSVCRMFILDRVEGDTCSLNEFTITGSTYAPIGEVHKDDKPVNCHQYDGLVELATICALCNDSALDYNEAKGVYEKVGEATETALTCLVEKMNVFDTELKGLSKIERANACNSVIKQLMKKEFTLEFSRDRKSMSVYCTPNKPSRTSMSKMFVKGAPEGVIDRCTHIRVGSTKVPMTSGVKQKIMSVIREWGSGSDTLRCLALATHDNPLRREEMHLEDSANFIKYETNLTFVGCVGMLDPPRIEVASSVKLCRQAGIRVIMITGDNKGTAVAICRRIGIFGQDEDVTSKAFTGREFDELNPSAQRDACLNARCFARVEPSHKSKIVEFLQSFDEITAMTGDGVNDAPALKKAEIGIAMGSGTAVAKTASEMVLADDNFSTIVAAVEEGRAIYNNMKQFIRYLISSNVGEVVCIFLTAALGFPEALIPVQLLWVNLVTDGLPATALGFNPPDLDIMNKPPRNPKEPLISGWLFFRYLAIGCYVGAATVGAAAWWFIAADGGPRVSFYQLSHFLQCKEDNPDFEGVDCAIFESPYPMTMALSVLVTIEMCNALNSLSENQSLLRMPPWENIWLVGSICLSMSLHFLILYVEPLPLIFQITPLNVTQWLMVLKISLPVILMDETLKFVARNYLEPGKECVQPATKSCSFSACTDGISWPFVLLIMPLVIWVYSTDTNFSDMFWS

| Kd [1] | binding result [2] | binding result [3] | binding result [4] | Binder |
| --- | --- | --- | --- | --- |
| 2.6 µM |  |  |  | wild type STIM1, recombinant (other, UniProt Q13586 23-213, looked up, also called wtSTIM1; WT STIM1) LSHSHSEKATGTSSGANSEESTAAEFCRIDKPLCHSEDEKLSFEAVRNIHKLMDDDANGDVDVEESDEFLREDLNYHDPTVKHSTFHGEDKLISVEDLWKAWKSSEVYNWTVDEVVQWLITYVELPQYEETFRKLQLSGHAMPRLAVTNTTMTGTVLKMTDRSHRQKLQLKALDTVLFGPPLLTRHNHLKD |
|  | binds | binds | binds | human platelet ERO1α (enzyme, UniProt Q96HE7 24-468, looked up, Endogenous protein in platelet lysates (immunoprecipitation, immunoblot)) EEQPPETAAQRCFCQVSGYLDDCTCDVETIDRFNNYRLFPRLQKLLESDYFRYYKVNLKRPCPFWNDISQCGRRDCAVKPCQSDEVPDGIKSASYKYSEEANNLIEECEQAERLGAVDESLSEETQKAVLQWTKHDDSSDNFCEADDIQSPEAEYVDLLLNPERYTGYKGPDAWKIWNVIYEENCFKPQTIKRPLNPLASGQGTSEENTFYSWLEGLCVEKRAFYRLISGLHASINVHLSARYLLQETWLEKKWGHNITEFQQRFDGILTEGEGPRRLKNLYFLYLIELRALSKVLPFFERPDFQLFTGNKIQDEENKMLLLEILHEIKSFPLHFDENSFFAGDKKEAHKLKEDFRLHFRNISRIMDCVGCFKCRLWGKLQTQGLGTALKILFSEKLIANMPESGPSYEFHLTRQEIVSLFNAFGRISTSVKELENFRNLLQNIH |
